Like-named read-outs stand apart in the source and are kept apart here.
Key:
brain = details: in vivo; cited from earlier work
[1] = test system: α-iduronidase-deficient mice (Idua−/−; Homozygote); assay: Brain enzyme activity one hour after intranasal administration of forms of iduronidase; details: 2 mg/kg, FIG. 1
[2] = test system: mouse model of mucopolysaccharidosis (MPS) type I; assay: Reduction of brain glycosaminoglycans by intranasal treatment (carbazole assay); type: in vivo; details: intranasal 1 mg/kg every other day for two weeks, MPS I mice, *p<0.05, FIG. 3
Protocol: A mouse model of mucopolysaccharidosis (MPS) type I, which is null for the lysosomal enzyme, α-L-iduronidase (IDUA), was used to measure the amount of glycosaminoglycans in the brain following intranasal administration of 1 mg/kg IDUA or GNeo-AP-IDUA every other day for two weeks. Quantification of glycoaminoglycan was performed using the carbazole assay. […] Data are represented as mean±SD (n=5 or 6). One-way analysis of variance (ANOVA) with Tukey's post-hoc analysis for comparison was applied for data analysis (*p<0.05).

[3] = test system: α-iduronidase-deficient mice (Idua−/−; Homozygote); details: mouse, in vivo, 2 mg/kg
[4] = test system: α-iduronidase-deficient mice (Idua−/−; Homozygote); details: mouse, in vivo
Protocol: One hour following administration the mice were sacrificed and their brains were removed and dissected to isolate tissue from the olfactory bulb, the cerebral cortex, and “other parts of the brain.” The total amount of tissue protein recovered from these various portions was ˜1 mg, ˜25 mg, and ˜50 mg, respectively. The various tissues were then assayed for IDUA activity, which was expressed relative to the wet weight of each part of brain.

[5] = test system: sulfamidase deficient mice (Sgsh−/−); assay: Brain enzyme activity one hour after intranasal administration of sulfamidase forms; details: 2 mg/kg, FIG. 4
[6] = test system: sulfamidase deficient mice (Sgsh−/−); details: mouse, in vivo, 2 mg/kg

B1: IDUA: recombinant enzyme iduronidase (Aldurazyme), not conjugated to guanidinoneomycin (protein, UniProt P35475 28-653, looked up)
Alpha-L-iduronidase: APHLVHVDAARALWPLRRFWRSTGFCPPLPHSQADQYVLSWDQQLNLAYVGAVPHRGIKQVRTHWLLELVTTRGSTGRGLSYNFTHLDGYLDLLRENQLLPGFELMGSASGHFTDFEDKQQVFEWKDLVSSLARRYIGRYGLAHVSKWNFETWNEPDHHDFDNVSMTMQGFLNYYDACSEGLRAASPALRLGGPGDSFHTPPRSPLSWGLLRHCHDGTNFFTGEAGVRLDYISLHRKGARSSISILEQEKVVAQQIRQLFPKFADTPIYNDEADPLVGWSLPQPWRADVTYAAMVVKVIAQHQNLLLANTTSAFPYALLSNDNAFLSYHPHPFAQRTLTARFQVNNTRPPHVQLLRKPVLTAMGLLALLDEEQLWAEVSQAGTVLDSNHTVGVLASAHRPQGPADAWRAAVLIYASDDTRAHPNRSVAVTLRLRGVPPGPGLVYVTRYLDNGLCSPDGEWRRLGRPVFPTAEQFRRMRAAEDPVAAAPRPLPAGGRLTLRPALRLPSLLLVHVCARPEKPPGQVTRLRALPLTQGQLVLVWSDEHVGSKCLWTYEIQFSQDGKAYTPVSRKPSTFNLFVFSPDTGAVSGSYRVRALDYWARPGPFSDPVPYLEVPVPRGPPSPGNP
**Q.** For B1, which “levels of enzyme in the brain after intranasal delivery” value (brain) is on record?
**A.** extremely low

**Q.** And the “enzyme activity in brain extracts (uptake into the brain)” value (“enzyme activity in brain extracts” for short) [1]?
**A.** not taken up efficiently

B2: AP-IDUA: iduronidase modified with alkaline phosphatase only, not conjugated to GNeo (protein, UniProt P35475 28-653, looked up)
Alpha-L-iduronidase: APHLVHVDAARALWPLRRFWRSTGFCPPLPHSQADQYVLSWDQQLNLAYVGAVPHRGIKQVRTHWLLELVTTRGSTGRGLSYNFTHLDGYLDLLRENQLLPGFELMGSASGHFTDFEDKQQVFEWKDLVSSLARRYIGRYGLAHVSKWNFETWNEPDHHDFDNVSMTMQGFLNYYDACSEGLRAASPALRLGGPGDSFHTPPRSPLSWGLLRHCHDGTNFFTGEAGVRLDYISLHRKGARSSISILEQEKVVAQQIRQLFPKFADTPIYNDEADPLVGWSLPQPWRADVTYAAMVVKVIAQHQNLLLANTTSAFPYALLSNDNAFLSYHPHPFAQRTLTARFQVNNTRPPHVQLLRKPVLTAMGLLALLDEEQLWAEVSQAGTVLDSNHTVGVLASAHRPQGPADAWRAAVLIYASDDTRAHPNRSVAVTLRLRGVPPGPGLVYVTRYLDNGLCSPDGEWRRLGRPVFPTAEQFRRMRAAEDPVAAAPRPLPAGGRLTLRPALRLPSLLLVHVCARPEKPPGQVTRLRALPLTQGQLVLVWSDEHVGSKCLWTYEIQFSQDGKAYTPVSRKPSTFNLFVFSPDTGAVSGSYRVRALDYWARPGPFSDPVPYLEVPVPRGPPSPGNP
modifications: alkaline phosphatase modified
**Q.** Which “enzyme activity in brain extracts” value [1] does the source give for B2 here?
**A.** does not appear to facilitate efficient transport into the brain

B3: GNeo-AP-IDUA: iduronidase (Aldurazyme) treated with alkaline phosphatase to remove mannose-6-phosphate groups, then conjugated to guanidinoneomycin via GNeo-NHS (conjugate, UniProt P35475 28-653, looked up)
Alpha-L-iduronidase: APHLVHVDAARALWPLRRFWRSTGFCPPLPHSQADQYVLSWDQQLNLAYVGAVPHRGIKQVRTHWLLELVTTRGSTGRGLSYNFTHLDGYLDLLRENQLLPGFELMGSASGHFTDFEDKQQVFEWKDLVSSLARRYIGRYGLAHVSKWNFETWNEPDHHDFDNVSMTMQGFLNYYDACSEGLRAASPALRLGGPGDSFHTPPRSPLSWGLLRHCHDGTNFFTGEAGVRLDYISLHRKGARSSISILEQEKVVAQQIRQLFPKFADTPIYNDEADPLVGWSLPQPWRADVTYAAMVVKVIAQHQNLLLANTTSAFPYALLSNDNAFLSYHPHPFAQRTLTARFQVNNTRPPHVQLLRKPVLTAMGLLALLDEEQLWAEVSQAGTVLDSNHTVGVLASAHRPQGPADAWRAAVLIYASDDTRAHPNRSVAVTLRLRGVPPGPGLVYVTRYLDNGLCSPDGEWRRLGRPVFPTAEQFRRMRAAEDPVAAAPRPLPAGGRLTLRPALRLPSLLLVHVCARPEKPPGQVTRLRALPLTQGQLVLVWSDEHVGSKCLWTYEIQFSQDGKAYTPVSRKPSTFNLFVFSPDTGAVSGSYRVRALDYWARPGPFSDPVPYLEVPVPRGPPSPGNP
modifications: guanidinoneomycin conjugate; alkaline phosphatase modified
**Q.** For B3, which “total GAG level in the mouse brain compared with untreated mouse brains” value [2] is on record?
**A.** significantly decreased

**Q.** What about the “enzyme activity in brain extracts” value [3] of the same molecule?
**A.** significantly more enzymatic activity

**Q.** What about the “dose at which uptake into the olfactory bulb (OB) and cerebral cortex (CC) saturated” value [4] of the same molecule?
**A.** ~1 mg/kg

**Q.** And the “enzyme concentration in the OB versus the CC, based on enzyme specific activity (nmols/hr/mg of tissue protein)” value [4]?
**A.** much greater than in the CC

**Q.** And the “share of the administered dose in Other parts of the Brain” value [4]?
**A.** ~64%

**Q.** And the “share of the administered dose in the CC” value [4]?
**A.** ~23%

**Q.** And the “share of the administered dose in the OB” value [4]?
**A.** ~13%

B4: GNeo-SGSH: Sulfamidase (SGSH) conjugated to guanidinoneomycin (conjugate, UniProt P51688 21-502, looked up)
N-sulphoglucosamine …: RPRNALLLLADDGGFESGAYNNSAIATPHLDALARRSLLFRNAFTSVSSCSPSRASLLTGLPQHQNGMYGLHQDVHHFNSFDKVRSLPLLLSQAGVRTGIIGKKHVGPETVYPFDFAYTEENGSVLQVGRNITRIKLLVRKFLQTQDDRPFFLYVAFHDPHRCGHSQPQYGTFCEKFGNGESGMGRIPDWTPQAYDPLDVLVPYFVPNTPAARADLAAQYTTVGRMDQGVGLVLQELRDAGVLNDTLVIFTSDNGIPFPSGRTNLYWPGTAEPLLVSSPEHPKRWGQVSEAYVSLLDLTPTILDWFSIPYPSYAIFGSKTIHLTGRSLLPALEAEPLWATVFGSQSHHEVTMSYPMRSVQHRHFRLVHNLNFKMPFPIDQDFYVSPTFQDLLNRTTAGQPTGWYKDLRHYYYRARWELYDRSRDPHETQNLATDPRFAQLLEMLRDQLAKWQWETHDPWVCAPDGVLEEKLSPQCQPLHNEL
modifications: guanidinoneomycin conjugate
**Q.** What does the source list for B4?
**A.** enzyme activity in brain extracts (uptake into the brain) ([5]; one hour after administration): rapid uptake into the brain; level of activity in the olfactory bulb of brain versus wildtype animals ([5]; one hour): exceeded that found in wildtype animals

B5: SGSH: Sulfamidase with mannose-6-phosphate terminated glycans, not conjugated to guanidinoneomycin (protein, UniProt P51688 21-502, looked up)
N-sulphoglucosamine …: RPRNALLLLADDGGFESGAYNNSAIATPHLDALARRSLLFRNAFTSVSSCSPSRASLLTGLPQHQNGMYGLHQDVHHFNSFDKVRSLPLLLSQAGVRTGIIGKKHVGPETVYPFDFAYTEENGSVLQVGRNITRIKLLVRKFLQTQDDRPFFLYVAFHDPHRCGHSQPQYGTFCEKFGNGESGMGRIPDWTPQAYDPLDVLVPYFVPNTPAARADLAAQYTTVGRMDQGVGLVLQELRDAGVLNDTLVIFTSDNGIPFPSGRTNLYWPGTAEPLLVSSPEHPKRWGQVSEAYVSLLDLTPTILDWFSIPYPSYAIFGSKTIHLTGRSLLPALEAEPLWATVFGSQSHHEVTMSYPMRSVQHRHFRLVHNLNFKMPFPIDQDFYVSPTFQDLLNRTTAGQPTGWYKDLRHYYYRARWELYDRSRDPHETQNLATDPRFAQLLEMLRDQLAKWQWETHDPWVCAPDGVLEEKLSPQCQPLHNEL
**Q.** For B5, which “enzyme activity in brain extracts” value [6] is on record?
**A.** not taken up efficiently

— patent US9757468B2, “Intranasal administration of guanidinylated aminoglycosides” (The Regents of the University of California, priority 2013, dated 2017)
